{
  "source": "patent US20180155451A1",
  "about": "(published 2018)",
  "binders": {"B1": {"name": "GpH7-A5/GpH7-B3 variant S239_05P/GpL16-k0 (antibody, human IgG1, kappa)", "heavy 1": "not shown", "heavy 2": "not shown", "light": "DIVMTQSPLSLPVTPGEPASISCQASESLVHSNRNTYLHWYLQKPGQSPQLLIYKVSNRFSGVPDRFSGSGSGTDFTLKISRVEAEDVGVYYCSQNTHVPPTFGQGTKVEIERTVAAPSVFIFPPSDEQLKSGTASVVCLLNNFYPREAKVQWKVDNALQSGNSQESVTEQDSKDSTYSLSSTLTLSKADYEKHKVYACEVTHQGLSSPVTKSFNRGEC", "notes": "Heterodimerized anti-glypican-3 IgG1; alteration in the GpH7-B3 chain only; also called He Ab"}, "B2": {"name": "GpH7-A5/GpH7-B3 variant S267_06M/GpL16-k0 (antibody, human IgG1, kappa)", "heavy 1": "not shown", "heavy 2": "not shown", "light": "B1 light", "notes": "as for B1"}, "B3": {"name": "GpH7-A5/GpH7-B3 variant S267_08L/GpL16-k0 (antibody, human IgG1, kappa)", "heavy 1": "not shown", "heavy 2": "not shown", "light": "B1 light", "notes": "as for B1"}, "B4": {"name": "GpH7-A5/GpH7-B3 variant S267_14T/GpL16-k0 (antibody, human IgG1, kappa)", "heavy 1": "not shown", "heavy 2": "not shown", "light": "B1 light", "notes": "as for B1"}, "B5": {"name": "GpH7-A5/GpH7-B3 variant V266_06M/GpL16-k0 (antibody, human IgG1, kappa)", "heavy 1": "not shown", "heavy 2": "not shown", "light": "B1 light", "notes": "as for B1"}, "B6": {"name": "GpH7-A5/GpH7-B3 variant G237_05P/GpL16-k0 (antibody, human IgG1, kappa)", "heavy 1": "not shown", "heavy 2": "not shown", "light": "B1 light", "notes": "as for B1"}, "B7": {"name": "GpH7-A5/GpH7-B3 variant S324_01G/GpL16-k0 (antibody, human IgG1, kappa)", "heavy 1": "not shown", "heavy 2": "not shown", "light": "B1 light", "notes": "He Ab; IgG1; mutation in one H chain only; also called He Ab"}, "B8": {"name": "GpH7-A5/GpH7-B3 variant S324_02A/GpL16-k0 (antibody, human IgG1, kappa)", "heavy 1": "not shown", "heavy 2": "not shown", "light": "B1 light", "notes": "as for B7"}, "B9": {"name": "GpH7-A5/GpH7-B3 variant S324_09D/GpL16-k0 (antibody, human IgG1, kappa)", "heavy 1": "not shown", "heavy 2": "not shown", "light": "B1 light", "notes": "as for B7"}, "B10": {"name": "GpH7-A5/GpH7-B3 variant S324_10E/GpL16-k0 (antibody, human IgG1, kappa)", "heavy 1": "not shown", "heavy 2": "not shown", "light": "B1 light", "notes": "as for B7"}, "B11": {"name": "GpH7-A5/GpH7-B3 variant S324_11K/GpL16-k0 (antibody, human IgG1, kappa)", "heavy 1": "not shown", "heavy 2": "not shown", "light": "B1 light", "notes": "as for B7"}, "B12": {"name": "GpH7-A5/GpH7-B3 variant S324_12R/GpL16-k0 (antibody, human IgG1, kappa)", "heavy 1": "not shown", "heavy 2": "not shown", "light": "B1 light", "notes": "as for B7"}, "B13": {"name": "GpH7-A5/GpH7-B3 variant S324_16H/GpL16-k0 (antibody, human IgG1, kappa)", "heavy 1": "not shown", "heavy 2": "not shown", "light": "B1 light", "notes": "as for B7"}, "B14": {"name": "GpH7-A5/GpH7-B3 variant S324_18N/GpL16-k0 (antibody, human IgG1, kappa)", "heavy 1": "not shown", "heavy 2": "not shown", "light": "B1 light", "notes": "as for B7"}, "B15": {"name": "GpH7-A5/GpH7-B3 variant S324_19Q/GpL16-k0 (antibody, human IgG1, kappa)", "heavy 1": "not shown", "heavy 2": "not shown", "light": "B1 light", "notes": "as for B7"}, "B16": {"name": "GpH7-A5/GpH7-B3 variant Y300_12R/GpL16-k0 (antibody, human IgG1, kappa)", "heavy 1": "not shown", "heavy 2": "not shown", "light": "B1 light", "notes": "as for B7"}, "B17": {"name": "GpH7-A5/GpH7-B3 variant Y300_13S/GpL16-k0 (antibody, human IgG1, kappa)", "heavy 1": "not shown", "heavy 2": "not shown", "light": "B1 light", "notes": "as for B7"}, "B18": {"name": "GpH7-A5/GpH7-B3 variant Y300_14T/GpL16-k0 (antibody, human IgG1, kappa)", "heavy 1": "not shown", "heavy 2": "not shown", "light": "B1 light", "notes": "as for B7"}},
  "data": [
    {"molecular_target": "T1, FcγRIIa H (human, UniProt P12318 34-217)", "T1 construct": "extracellular domain; Soluble extracellular domain with C-terminal His tag, expressed in FreeStyle293 cells; also called FcgRIIa H; 2aH; not shown: C-terminal His tag", "T1 sequence (looked up)": "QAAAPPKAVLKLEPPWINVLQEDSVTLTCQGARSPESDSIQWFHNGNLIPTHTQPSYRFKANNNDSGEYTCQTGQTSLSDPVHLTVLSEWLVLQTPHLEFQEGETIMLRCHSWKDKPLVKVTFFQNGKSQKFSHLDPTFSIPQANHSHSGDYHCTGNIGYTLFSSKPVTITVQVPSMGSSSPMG", "test": "SPR (Biacore), antibody captured, FcγR as analyte; relative to HeCon Ab", "method": "(§1) The heterodimerized antibodies He Abs in which one of the H chains was introduced with an alteration were assayed for their binding activities to each activating FcγR and inhibitory FcγR according to the method described in Example 4. […] The activating FcγRs in FIGS. 26, 27, 28, and 29 are FcγRIa, FcγRIIa (R), FcγRIIa (H), and FcγRIIIa, respectively.\n(§2) Analysis of interaction between objective antibody and the FcγR was carried out using Biacore T100 (GE Healthcare). HBS-EP+ (GE Healthcare) was used as the running buffer, and the measurement temperature was set to 25° C. Chips produced by immobilizing the antigen peptide by the amine coupling method to a Series S Sencor Chip CM5 (GE Healthcare), or alternatively, chips produced by allowing preliminarily biotinylated antigen peptides to interact with and immobilize onto a Series S Sensor Chip SA (certified) (GE Healthcare) were used. Antibodies of interest were captured onto an antigen peptide-immobilized chip, and allowed to interact to each FcγR diluted with running buffer. To regenerate and repeatedly use the chip, the antibodies captured on the chip were washed off by reacting 10 mM glycine-HCl, pH 1.5.", "values": [
      {"binder": "B1", "He/Con_2aH": "33.3 % of GpH7-A5/GpH7-B3/GpL16-k0 (=100)"},
      {"binder": "B2", "He/Con_2aH": "34.3 % of GpH7-A5/GpH7-B3/GpL16-k0 (=100)"},
      {"binder": "B3", "He/Con_2aH": "29 % of GpH7-A5/GpH7-B3/GpL16-k0 (=100)"},
      {"binder": "B4", "He/Con_2aH": "63.3 % of GpH7-A5/GpH7-B3/GpL16-k0 (=100)"},
      {"binder": "B5", "He/Con_2aH": "83.9 % of GpH7-A5/GpH7-B3/GpL16-k0 (=100)"}
    ]},
    {"molecular_target": "T2, FcγRIIb (human, UniProt P31994 43-217)", "T2 construct": "extracellular domain; Soluble extracellular domain with C-terminal His tag, expressed in FreeStyle293 cells; also called FcgRIIb; 2b; not shown: C-terminal His tag", "T2 sequence (looked up)": "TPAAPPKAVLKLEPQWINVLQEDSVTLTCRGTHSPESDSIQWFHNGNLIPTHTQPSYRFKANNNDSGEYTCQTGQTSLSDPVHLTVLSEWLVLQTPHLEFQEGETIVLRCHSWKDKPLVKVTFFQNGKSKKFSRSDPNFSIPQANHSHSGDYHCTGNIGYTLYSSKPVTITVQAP", "test": "SPR (Biacore), antibody captured, FcγR as analyte; relative to HeCon Ab", "method": "as §1, §2", "values": [
      {"binder": "B1", "He/Con_2b": "102 % of GpH7-A5/GpH7-B3/GpL16-k0 (=100)"},
      {"binder": "B2", "He/Con_2b": "210 % of GpH7-A5/GpH7-B3/GpL16-k0 (=100)"},
      {"binder": "B3", "He/Con_2b": "109 % of GpH7-A5/GpH7-B3/GpL16-k0 (=100)"},
      {"binder": "B4", "He/Con_2b": "104 % of GpH7-A5/GpH7-B3/GpL16-k0 (=100)"},
      {"binder": "B5", "He/Con_2b": "251 % of GpH7-A5/GpH7-B3/GpL16-k0 (=100)"},
      {"binder": "B6", "He/Con_2b": "24.6 % of GpH7-A5/GpH7-B3/GpL16-k0 (=100)"}
    ]},
    {"molecular_target": "T3, FcγRIIa H (FcγRIIa type H, His at position 131), extracellular domain with C-terminal His tag (human, UniProt P12318 34-217)", "T3 construct": "extracellular domain; Expressed in FreeStyle293 cells; analyte in the Biacore assay; also called FcgRIIa H; 2aH; not shown: His tag at the C terminus", "T3 sequence (looked up)": "T1 sequence (looked up)", "test": "SPR Biacore; He/Con_2aH divided by He/Con_2b (reference: FcgRIIb)", "values": [
      {"binder": "B7", "He_2aH/2b (IIaH/IIb)": 1.22},
      {"binder": "B8", "He_2aH/2b (IIaH/IIb)": 1.31},
      {"binder": "B9", "He_2aH/2b (IIaH/IIb)": 1.23},
      {"binder": "B10", "He_2aH/2b (IIaH/IIb)": 1.33},
      {"binder": "B11", "He_2aH/2b (IIaH/IIb)": 1.34},
      {"binder": "B12", "He_2aH/2b (IIaH/IIb)": 1.53},
      {"binder": "B13", "He_2aH/2b (IIaH/IIb)": 1.22},
      {"binder": "B14", "He_2aH/2b (IIaH/IIb)": 1.21},
      {"binder": "B15", "He_2aH/2b (IIaH/IIb)": 1.44},
      {"binder": "B16", "He_2aH/2b (IIaH/IIb)": 1.34},
      {"binder": "B17", "He_2aH/2b (IIaH/IIb)": 1.64},
      {"binder": "B18", "He_2aH/2b (IIaH/IIb)": 1.69}
    ]},
    {"molecular_target": "T3, FcγRIIa H (FcγRIIa type H, His at …)", "test": "SPR Biacore, captured antibody, FcgR analyte; GpH7-A5/GpH7-B3/GpL16-k0 = 100", "values": [
      {"binder": "B7", "He/Con_2aH": "98.8 % of HeCon Ab"},
      {"binder": "B8", "He/Con_2aH": "102 % of HeCon Ab"},
      {"binder": "B9", "He/Con_2aH": "106 % of HeCon Ab"},
      {"binder": "B10", "He/Con_2aH": "103 % of HeCon Ab"},
      {"binder": "B11", "He/Con_2aH": "92.2 % of HeCon Ab"},
      {"binder": "B12", "He/Con_2aH": "96.5 % of HeCon Ab"},
      {"binder": "B13", "He/Con_2aH": "102 % of HeCon Ab"},
      {"binder": "B14", "He/Con_2aH": "97.8 % of HeCon Ab"},
      {"binder": "B15", "He/Con_2aH": "96 % of HeCon Ab"},
      {"binder": "B16", "He/Con_2aH": "55.4 % of HeCon Ab"},
      {"binder": "B17", "He/Con_2aH": "88.1 % of HeCon Ab"},
      {"binder": "B18", "He/Con_2aH": "94.1 % of HeCon Ab"}
    ]},
    {"molecular_target": "T4, FcγRIIb, extracellular domain with C-terminal His tag (human, UniProt P31994 43-217)", "T4 construct": "extracellular domain; Expressed in FreeStyle293 cells; analyte in the Biacore assay; also called FcgRIIb; 2b; not shown: His tag at the C terminus", "T4 sequence (looked up)": "T2 sequence (looked up)", "test": "SPR Biacore, captured antibody, FcgR analyte; GpH7-A5/GpH7-B3/GpL16-k0 = 100", "values": [
      {"binder": "B7", "He/Con_2b": "81.1 % of HeCon Ab"},
      {"binder": "B8", "He/Con_2b": "78.3 % of HeCon Ab"},
      {"binder": "B9", "He/Con_2b": "85.8 % of HeCon Ab"},
      {"binder": "B10", "He/Con_2b": "77.4 % of HeCon Ab"},
      {"binder": "B11", "He/Con_2b": "68.6 % of HeCon Ab"},
      {"binder": "B12", "He/Con_2b": "63.1 % of HeCon Ab"},
      {"binder": "B13", "He/Con_2b": "83.5 % of HeCon Ab"},
      {"binder": "B14", "He/Con_2b": "81.1 % of HeCon Ab"},
      {"binder": "B15", "He/Con_2b": "66.8 % of HeCon Ab"},
      {"binder": "B16", "He/Con_2b": "41.2 % of HeCon Ab"},
      {"binder": "B17", "He/Con_2b": "53.9 % of HeCon Ab"},
      {"binder": "B18", "He/Con_2b": "55.6 % of HeCon Ab"}
    ]}
  ]
}
